For orientation: EC50 means the concentration giving half of the maximal effect.

Here are results for one molecule from patent US20240148828A1 (published 2024).

The target in this assay is T1, CD19 expressed on cells (Daudi, Raji, K562-CD19) (human, UniProt P15391 20-556).
T1 chain: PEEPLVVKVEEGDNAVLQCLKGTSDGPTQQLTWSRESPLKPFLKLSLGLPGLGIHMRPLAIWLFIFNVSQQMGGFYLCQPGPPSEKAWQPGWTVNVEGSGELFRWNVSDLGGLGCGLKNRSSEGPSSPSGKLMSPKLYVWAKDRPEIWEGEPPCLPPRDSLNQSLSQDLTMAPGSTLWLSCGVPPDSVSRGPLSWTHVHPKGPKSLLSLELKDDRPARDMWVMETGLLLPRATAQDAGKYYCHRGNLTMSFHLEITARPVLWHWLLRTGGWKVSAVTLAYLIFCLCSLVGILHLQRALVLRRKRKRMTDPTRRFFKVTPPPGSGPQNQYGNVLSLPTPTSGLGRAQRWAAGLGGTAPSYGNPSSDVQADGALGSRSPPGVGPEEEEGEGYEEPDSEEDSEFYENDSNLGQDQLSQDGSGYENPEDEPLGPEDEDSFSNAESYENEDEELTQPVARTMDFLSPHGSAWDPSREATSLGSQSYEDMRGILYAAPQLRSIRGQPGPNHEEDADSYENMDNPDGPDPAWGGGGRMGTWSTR
The experiment in a line: flow cytometry cell binding.

B1: BTN2A1/3A1-Fc-CD19scFv heterodimeric protein (Fc fusion)
chain 1: QFIVVGPTDPILATVGENTTLRCHLSPEKNAEDMEVRWFRSQFSPAVFVYKGGRERTEEQMEEYRGRTTFVSKDISRGSVALVIHNITAQENGTYRCYFQEGRSYDEAILHLVVAGLGSKPLISMRGHEDGGIRLECISRGWYPKPLTVWRDPYGGVAPALKEVSMPDADGLFMVTTAVIIRDKSVRNMSCSINNTLLGQKKESVIFIPESFMPSVSPCAGSGSRKGGKRGSKYGPPCPPCPAPEFLGGPSVFLFPPKPKDQLMISRTPEVTCVVVDVSQEDPEVQFNWYVDGVEVHNAKTKPREEQFNSTYRVVSVLTVLHQDWLSGKEYKCKVSSKGLPSSIEKTISNATGQPREPQVYTLPPSQEEMTKNQVSLTCLVKGFYPSDIAVEWESNGQPENNYKTTPPVLDSDGSFFLYSRLTVDKSRWQEGNVFSCSVLHEALHNHYTQKSLSLSLGKDEGGEDGSDIQMTQTTSSLSASLGDRVTISCRASQDISKYLNWYQQKPDGTVKLLIYHTSRLHSGVPSRFSGSGSGTDYSLTISNLEQEDIATYFCQQGNTLPYTFGGGTKLEITGGGSGGGSGGGSEVKLQESGPGLVAPSQSLSVTCTVSGVSLPDYGVSWIRQPPRKGLEWLGVIWGSETTYYNSALKSRLTIIKDNSKSQVFLKMNSLQTDDTAIYYCAKHYYYGGSYAMDYWGQGTSVTVSS
chain 2: not shown
Regarding B1, the 50% effective concentration (EC50) turned out to be 5 nM.
